Reference: paper PMC9633773, “Discovering cell-active BCL6 inhibitors: effectively combining biochemical HTS with multiple biophysical techniques, X-ray crystallography and cell-based assays” (Scientific Reports, 2022)

Biological target: BCL6 BTB domain (BCL6 5-129, tag removed by HRV-3C protease) (human) (UniProt P41182)
Test: fluorescence polarisation; competition: 10 nM BCOR-AF633, 3 µM BCL6 BTB, unlabelled peptide varied; 20 mM Hepes/NaOH pH 8.0, 150 mM NaCl, 0.5 mM TCEP, 0.05% Tween 20, 1-2% DMSO; 2 h at room temperature

% inhibition at 980 µM: 16%
Substance: WVIP tetrapeptide (Ac-WVIP-NH2)
